# Non-standard residues stand in square brackets, D forms with d. No end group written: not given here.
# T1: NMUR1 (UniProt Q9HB89 1-426, limits assumed)
# T1 sequence (looked up): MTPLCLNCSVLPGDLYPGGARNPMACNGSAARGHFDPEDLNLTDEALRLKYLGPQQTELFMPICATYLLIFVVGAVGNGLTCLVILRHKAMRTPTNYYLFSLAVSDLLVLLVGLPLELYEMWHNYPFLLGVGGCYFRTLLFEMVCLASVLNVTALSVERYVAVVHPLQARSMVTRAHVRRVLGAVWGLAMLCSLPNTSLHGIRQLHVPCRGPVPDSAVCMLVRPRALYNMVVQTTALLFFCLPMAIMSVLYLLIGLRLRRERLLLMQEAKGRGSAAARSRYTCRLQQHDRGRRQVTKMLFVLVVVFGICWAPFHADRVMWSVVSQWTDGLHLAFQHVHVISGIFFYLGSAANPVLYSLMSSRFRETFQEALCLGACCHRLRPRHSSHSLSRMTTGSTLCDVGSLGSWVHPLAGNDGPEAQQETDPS
# B1: DT-110, tripeptide glycine-glycine-D-leucine (GGdL) (peptide)
# peptide: Gly-Gly-[dL]
# Experiments:
# [1] = biological target: GPCR109a (Homo sapiens, UniProt Q8TDS4); settings: doses of 5 mM and below; FIG. 6A
# Chain of GPCR109a (Q8TDS4 whole entry): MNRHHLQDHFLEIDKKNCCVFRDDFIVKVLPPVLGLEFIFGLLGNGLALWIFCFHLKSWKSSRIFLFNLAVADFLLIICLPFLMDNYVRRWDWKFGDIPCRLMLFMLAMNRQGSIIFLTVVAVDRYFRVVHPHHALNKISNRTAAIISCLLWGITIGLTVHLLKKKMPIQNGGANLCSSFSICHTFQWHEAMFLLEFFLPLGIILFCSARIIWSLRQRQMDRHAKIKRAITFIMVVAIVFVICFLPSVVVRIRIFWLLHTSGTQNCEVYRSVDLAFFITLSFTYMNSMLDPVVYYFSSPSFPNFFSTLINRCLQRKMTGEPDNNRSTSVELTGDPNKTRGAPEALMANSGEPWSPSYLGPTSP
# Method: (§1) Cells were grown in DMEM medium containing 10% FBS, 1× non-essential amino acids (Gibco #111450-040), 20 mM HEPES and 250 μg/mL Geneticin® (Gibco #10131-035). Cells were harvested with 0.25% Trypsin/EDTA (Gibco #25200-056), pelleted at 1,200×g for 6 minutes and resuspended in DMEM media described above minus Geneticin®. The cells were seeded at 4×10^4 cells/well/100 μL of a clear bottom/black 96-well plate and grown overnight. The calcium mobilization assays was performed using Screen Quest Fluo-8 Medium Removal Calcium Assay Kit (AAT Bioquest #36308) according to the manufacturer's protocol. Briefly, cells were washed with 100 μL volume of Hank's balanced salt solution, 20 mM HEPES, pH 7.4 and loaded with a buffer containing HBSS, 20 mM HEPES, 1× Pluronic F127 and the Fluo-8 NW dye. The cells were incubated for 30 minutes at 37° C. followed by a 30 minute room temperature incubation. Drug stocks were prepared at 100× concentration and diluted 1:33 in HBSS, 20 mM HEPES, pH 7.4 in a 96-well plate (Corning #3641). Calcium mobilization was measured using the FlexStation 3 (Molecular Devices) at excitation wavelength of 490 nm and emission wavelength of 525 nm. Fluorescence was measured for 180 seconds at 5 second intervals with the addition of compound at a 1:3 dilution after 15 seconds. Peak fluorescence values were calculated using SoftMax Pro 5 (Molecular Devices). The fluorescence values obtained from control wells without cells are subtracted from wells containing treated cells to correct for background. The ratio of fluorescence values of treated cells to vehicle control wells was used to calculate fold activity of the compounds.
# (§2) The specificity of the agonist activity was determined by testing in the cell lines that over-express GPCR40 and GPCR 109a.
# [2] = biological target: GPCR40 (Homo sapiens, UniProt O14842); settings: doses of 5 mM and below; FIG. 7A
# Chain of GPCR40 (O14842 whole entry): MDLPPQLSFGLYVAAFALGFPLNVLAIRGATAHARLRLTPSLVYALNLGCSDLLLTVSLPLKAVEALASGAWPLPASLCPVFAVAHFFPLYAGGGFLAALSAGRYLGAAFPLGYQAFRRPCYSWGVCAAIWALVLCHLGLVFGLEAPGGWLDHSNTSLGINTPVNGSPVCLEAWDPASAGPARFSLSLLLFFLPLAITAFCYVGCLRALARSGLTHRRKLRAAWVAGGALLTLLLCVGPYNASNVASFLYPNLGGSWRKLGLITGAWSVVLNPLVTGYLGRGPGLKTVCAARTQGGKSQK
# Method: as §1, §2
# [3] = tested on: MrgprD^−/− (KO) mice; settings: 0.5 mg/g with 2 mg/g glucose oral; P<0.05 KO vs. WT
# Method: (§3) The mice were fasted overnight and their fasting glucose levels were measured. […] Blood glucose levels were measured at 30, 60, 90 and 120 minutes after glucose loading.
# as §3
# [4] = biological target: T1, NMUR1; assay: cell-based or functional assay
Molecule,agonist activity (Ca2+ flux) [1],agonist activity (Ca2+ flux) [2],reduction of blood glucose levels in KO mice compared with WT mice (OGTT) [3],"percent activation (calcium flux, GPCRProfiler), DT-110 @ 1.25 mM, Avg. [4]","percent activation (calcium flux, GPCRProfiler), DT-110 @ 1.25 mM, n1 [4]","percent activation (calcium flux, GPCRProfiler), DT-110 @ 1.25 mM, n2 [4]","percent activation (calcium flux, GPCRProfiler), DT-110 @ 12.5 mM, Avg. [4]","percent activation (calcium flux, GPCRProfiler), DT-110 @ 12.5 mM, n1 [4]","percent activation (calcium flux, GPCRProfiler), DT-110 @ 12.5 mM, n2 [4]"
CC(C)C[C@@H](NC(=O)CNC(=O)CN)C(=O)O,inactive,inactive,significantly impaired,–,–,–,–,–,–
B1,–,–,–,0.5%,1.3%,-0.4%,-0.1%,-0.7%,0.5%

# From patent publication US20180074053A1 (priority 2016, published 2018)
